Values of other authors, collected in article PMC8093553.
pKd: −log10 of the molar value.

Molecular target: transferrin receptor (Homo sapiens) (UniProt P02786)
Sequence (P02786 101-760): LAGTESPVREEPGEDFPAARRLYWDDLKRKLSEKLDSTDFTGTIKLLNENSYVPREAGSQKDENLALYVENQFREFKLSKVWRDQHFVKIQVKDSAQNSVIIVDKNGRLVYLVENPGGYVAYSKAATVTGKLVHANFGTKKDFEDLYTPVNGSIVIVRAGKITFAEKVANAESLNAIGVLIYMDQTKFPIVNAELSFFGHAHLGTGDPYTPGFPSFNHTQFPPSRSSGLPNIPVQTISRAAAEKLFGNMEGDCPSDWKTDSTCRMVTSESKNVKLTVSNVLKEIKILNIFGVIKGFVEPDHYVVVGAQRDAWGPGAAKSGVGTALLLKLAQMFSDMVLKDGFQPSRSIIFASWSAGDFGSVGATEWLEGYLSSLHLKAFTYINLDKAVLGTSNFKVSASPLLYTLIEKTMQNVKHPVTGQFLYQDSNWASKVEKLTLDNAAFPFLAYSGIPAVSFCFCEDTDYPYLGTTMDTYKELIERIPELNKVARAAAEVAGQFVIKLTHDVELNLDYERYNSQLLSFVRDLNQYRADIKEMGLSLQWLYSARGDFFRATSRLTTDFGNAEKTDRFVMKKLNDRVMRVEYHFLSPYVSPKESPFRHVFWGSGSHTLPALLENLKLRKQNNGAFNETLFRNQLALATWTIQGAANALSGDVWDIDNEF

pKd: 8.00
Substance: T7 peptide
